{"source": "patent US8632989B1", "about": "“Mutant insulin degrading enzyme and methods of use” (University of Kentucky Research Foundation, priority 2011, dated 2014)", "key": {"Abz-GGFLRKHGQ-EDDnp [1]": {"tested_on": "Abz-GGFLRKHGQ-EDDnp", "test": "Enzyme activity assay, kinetics of wild type rIDE and distal site mutants with fluorogenic substrate", "format": "biochemical"}, "Abz-GGFLRKHGQ-EDDnp [2]": {"target": "T1, Abz-GGFLRKHGQ-EDDnp (Rattus norvegicus, UniProt P35559)", "T1 construct": "begin at methionine 42, which is believed to be the in vivo start site, and extend through the native C-terminal residue leucine 1019; hexahistidine with linker holding a TEV protease site (N, cleaved yes); made in house; host or cells: SF9 insect cells (baculovirus, pFastBac HTb)", "T1 sequence (P35559 42-1019)": "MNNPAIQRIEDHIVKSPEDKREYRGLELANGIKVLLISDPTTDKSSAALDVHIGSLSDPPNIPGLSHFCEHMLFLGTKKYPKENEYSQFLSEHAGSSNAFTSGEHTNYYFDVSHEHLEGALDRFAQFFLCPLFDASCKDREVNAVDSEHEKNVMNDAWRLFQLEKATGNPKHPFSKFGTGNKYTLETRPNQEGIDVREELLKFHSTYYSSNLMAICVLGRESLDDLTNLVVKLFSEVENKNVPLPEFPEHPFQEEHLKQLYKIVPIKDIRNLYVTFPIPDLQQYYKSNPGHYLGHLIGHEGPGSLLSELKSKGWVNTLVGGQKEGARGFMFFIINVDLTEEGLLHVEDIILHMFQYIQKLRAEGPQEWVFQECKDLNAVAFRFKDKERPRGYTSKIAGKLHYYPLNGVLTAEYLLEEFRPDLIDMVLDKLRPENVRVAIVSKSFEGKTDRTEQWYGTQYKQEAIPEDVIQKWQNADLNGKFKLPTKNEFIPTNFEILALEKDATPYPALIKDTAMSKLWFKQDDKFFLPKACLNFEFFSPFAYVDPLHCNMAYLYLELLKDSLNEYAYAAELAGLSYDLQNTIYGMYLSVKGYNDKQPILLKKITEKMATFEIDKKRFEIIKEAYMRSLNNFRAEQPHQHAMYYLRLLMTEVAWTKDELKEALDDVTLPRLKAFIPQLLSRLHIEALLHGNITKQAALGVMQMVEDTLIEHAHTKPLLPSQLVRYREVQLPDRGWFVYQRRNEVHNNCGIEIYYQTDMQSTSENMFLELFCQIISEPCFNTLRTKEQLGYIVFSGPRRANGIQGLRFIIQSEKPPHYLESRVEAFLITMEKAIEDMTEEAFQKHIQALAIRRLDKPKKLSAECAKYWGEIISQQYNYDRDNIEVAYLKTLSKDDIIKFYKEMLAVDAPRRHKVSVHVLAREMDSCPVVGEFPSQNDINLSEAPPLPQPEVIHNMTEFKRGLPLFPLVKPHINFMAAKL", "test": "Activation by bradykinin, wild type rIDE and distal site mutants", "format": "biochemical", "settings": "10 μM Abz-GGFLRKHGQ-EDDnp as substrate", "method": "FIG. 17. Effects of distal site mutations. (A) Comparison of the kinetics of wild type IDE with the distal site mutants. Activity was measured with varying amounts of Abz-[…]-EDDnp (SEQ ID NO:3) substrate as indicated. Either hyperbolic (Michaelis-Menten equation) or sigmoidal curves (Hill equation) were fit to the data. (B) Effect of bradykinin on the activity of wild type IDE and the distal site mutants. (C) Activation of wild type IDE and distal site mutants by ATP. Relative activity is the fold activation above the level of the wild type enzyme alone.\nThe activity of IDE was measured by following the increase in fluorescence upon hydrolysis at the L-R bond of the fluorogenic peptide Abz-[…]-EDDnp (SEQ ID NO:3) on a SpectraMax Gemini XS fluorescence plate reader using an excitation wavelength of 318 nm and emission wavelength of 419 nm. Reactions were carried out in 200 μl volumes containing 50 mM Tris-HCl, pH 7.4, 1.92 μg of wild type rIDE, 4.6 μg of rIDE-V360S, 4.3 μg rIDE-I374S, or 1.63 μg of rIDE-Y609F. For measurements of activation by bradykinin, IDE activity was determined with 10 μM Abz-[…]-EDDnp (SEQ ID NO:3) as substrate in 50 mM Tris-HCl buffer, pH 7.4. The amount of protein was 0.5 μg for wild type rIDE and 5 μg for each of the IDE distal-site mutants. Data were analyzed using Softmax 4.0 (Molecular Devices) and kinetic parameters calculated with Prism (Graphpad Software). […]"}, "Abz-GGFLRKHGQ-EDDnp [3]": {"target": "T1, Abz-GGFLRKHGQ-EDDnp", "settings": "reference [15]; cited from earlier work"}}}
{"molecule": "IDE: Native rat insulin degrading enzyme (SEQ ID NO:1), expressed as hexahistidine fusion protein in Sf9 insect cells (protein, listed as Rattus norvegicus, hexahistidine tag; wild-type Insulin Degrading Enzyme (IDE) from rat) MRNGLVWLLHPALPSTLHSILGARPPPVKRLCGFPKQIYSTMNNPAIQRIEDHIVKSPEDKREYRGLELANGIKVLLISDPTTDKSSAALDVHIGSLSDPPNIPGLSHFCEHMLFLGTKKYPKENEYSQFLSEHAGSSNAFTSGEHTNYYFDVSHEHLEGALDRFAQFFLCPLFDASCKDREVNAVDSEHEKNVMNDAWRLFQLEKATGNPKHPFSKFGTGNKYTLETRPNQEGIDVREELLKFHSTYYSSNLMAICVLGRESLDDLTNLVVKLFSEVENKNVPLPEFPEHPFQEEHLKQLYKIVPIKDIRNLYVTFPIPDLQQYYKSNPGHYLGHLIGHEGPGSLLSELKSKGWVNTLVGGQKEGARGFMFFIINVDLTEEGLLHVEDIILHMFQYIQKLRAEGPQEWVFQECKDLNAVAFRFKDKERPRGYTSKIAGKLHYYPLNGVLTAEYLLEEFRPDLIDMVLDKLRPENVRVAIVSKSFEGKTDRTEQWYGTQYKQEAIPEDVIQKWQNADLNGKFKLPTKNEFIPTNFEILALEKDATPYPALIKDTAMSKLWFKQDDKFFLPKACLNFEFFSPFAYVDPLHCNMAYLYLELLKDSLNEYAYAAELAGLSYDLQNTIYGMYLSVKGYNDKQPILLKKITEKMATFEIDKKRFEIIKEAYMRSLNNFRAEQPHQHAMYYLRLLMTEVAWTKDELKEALDDVTLPRLKAFIPQLLSRLHIEALLHGNITKQAALGVMQMVEDTLIEHAHTKPLLPSQLVRYREVQLPDRGWFVYQRRNEVHNNCGIEIYYQTDMQSTSENMFLELFCQIISEPCFNTLRTKEQLGYIVFSGPRRANGIQGLRFIIQSEKPPHYLESRVEAFLITMEKAIEDMTEEAFQKHIQALAIRRLDKPKKLSAECAKYWGEIISQQYNYDRDNIEVAYLKTLSKDDIIKFYKEMLAVDAPRRHKVSVHVLAREMDSCPVVGEFPSQNDINLSEAPPLPQPEVIHNMTEFKRGLPLFPLVKPHINFMAAKL", "values": [{"measurement": "Specific activity", "setting": "Abz-GGFLRKHGQ-EDDnp [1]; Abz-GGFLRKHGQ-EDDnp substrate", "result": "8,131 nmol/min/mg"}, {"measurement": "Km", "setting": "Abz-GGFLRKHGQ-EDDnp [1]; rat IDE, Abz-GGFLRKHGQ-EDDnp as substrate", "result": "15.9 ± 1.19", "unit": "µM"}, {"measurement": "Vmax", "setting": "Abz-GGFLRKHGQ-EDDnp [1]; rat IDE, Abz-GGFLRKHGQ-EDDnp as substrate, 50 mM Tris-HCl, pH 7.4", "result": "35.5 ± 11.6", "unit": "nmol/min/mg"}, {"measurement": "Hill coefficient", "setting": "Abz-GGFLRKHGQ-EDDnp [1]; rat IDE, Abz-GGFLRKHGQ-EDDnp as substrate, listed as Wild Type", "result": "1.8 ± 0.16"}, {"measurement": "Hill coefficient", "setting": "Abz-GGFLRKHGQ-EDDnp [1]; rat IDE, Abz-GGFLRKHGQ-EDDnp as substrate, listed as wild type enzyme", "result": 1.80}, {"measurement": "Heterotropic activation with bradykinin", "setting": "Abz-GGFLRKHGQ-EDDnp [2]", "result": "approximately 4 fold"}, {"measurement": "increase of cleavage rate of Abz-GGFLRKHGQ-EDDnp by ATP", "setting": "Abz-GGFLRKHGQ-EDDnp [3]", "result": "more than 40 fold"}]}
